Results reported in article PMC4893915.
Numbering of substitutions follows the chain as printed. Like-named read-outs stand apart in the source and are kept apart here.

B1: 1xGT (dsDNA)
DNA 1: TTCGATACACTTGTGGAATGTGTTTGATTTGTTAGCCCCG
DNA 2: CGGGGCTAACAAATCAAACACATTCCACAAGTGTATCGAA
B2: 2xGT (dsDNA)
DNA 1: B1 DNA 1 with T24G, T25G, G26A, T29G
DNA 2: B1 DNA 2 with A12C, C15T, A16C, A17C

Tests used:
Assay in all cases: EMSA
[1] = target: TEAD DBD, multimeric SEC fraction (F#50) (human, UniProt P28347 28-104)
[2] = target: TEAD DBD, monomeric SEC fraction (F#61) (human, UniProt P28347 28-104)
[3] = target: T1, ΔL1 TEAD DBD (truncated L1 loop) (human, UniProt P28347 28-104, del52-63)
[4] = target: T1, ΔL1 TEAD DBD (truncated L1 loop); remark: listed apart in the source
TEAD DBD (before SEC) = TEAD DBD (before SEC) (human, UniProt P28347 28-104)

Binder	binding result [1]	binding result [2]	Kd [3] [nM]	Kd [4] [nM]	binding result (TEAD DBD (before SEC))
B1	binds	binds	7.9 ± 1.4		
B2	binds	binds		8.7	binds
